Experimental data: article PMC9482650, “Quantitative fragmentomics allow affinity mapping of interactomes” (Nature Communications, 2022)

Legend:
Assay in all cases: holdup assay
Design in all cases: key: below the threshold = too weak to quantify, mostly under pKd 3.1 to 4
PARD3B_1, Q8TEW8 = biological target: T1, PARD3B_1, Q8TEW8
T1 sequence (Q8TEW8 196-299, limits assumed, looked up): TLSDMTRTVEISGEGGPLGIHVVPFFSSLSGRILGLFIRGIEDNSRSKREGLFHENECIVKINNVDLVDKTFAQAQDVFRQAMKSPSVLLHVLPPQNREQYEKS

GRIP1_2, Q9Y3R0 = biological target: T2, GRIP1_2, Q9Y3R0
T2 sequence (Q9Y3R0 145-248, limits assumed, looked up): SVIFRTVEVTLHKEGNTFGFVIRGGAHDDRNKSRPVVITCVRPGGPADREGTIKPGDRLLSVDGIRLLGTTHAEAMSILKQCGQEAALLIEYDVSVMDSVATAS

ARHGAP21, Q5T5U3 = biological target: T3, ARHGAP21, Q5T5U3
T3 sequence (Q5T5U3 45-169, limits assumed, looked up): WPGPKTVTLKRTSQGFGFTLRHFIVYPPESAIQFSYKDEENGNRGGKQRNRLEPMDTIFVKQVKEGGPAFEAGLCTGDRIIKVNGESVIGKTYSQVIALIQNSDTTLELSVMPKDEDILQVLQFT

Inadl_3, Q8NI35 = biological target: Inadl_3, Q8NI35
DFNB31_3, Q9P202 = biological target: T4, DFNB31_3, Q9P202
T4 sequence (Q9P202 811-907, limits assumed, looked up): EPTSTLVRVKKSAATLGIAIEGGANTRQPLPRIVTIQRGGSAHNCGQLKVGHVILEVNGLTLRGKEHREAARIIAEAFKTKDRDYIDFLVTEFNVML

LNX2_3, Q8N448 = biological target: T5, LNX2_3, Q8N448
T5 sequence (Q8N448 463-564, limits assumed, looked up): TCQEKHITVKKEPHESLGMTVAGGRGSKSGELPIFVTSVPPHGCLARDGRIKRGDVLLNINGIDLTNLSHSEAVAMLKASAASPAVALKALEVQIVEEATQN

ARHGEF11, O15085 = biological target: T6, ARHGEF11, O15085
T6 sequence (O15085 42-136, limits assumed, looked up): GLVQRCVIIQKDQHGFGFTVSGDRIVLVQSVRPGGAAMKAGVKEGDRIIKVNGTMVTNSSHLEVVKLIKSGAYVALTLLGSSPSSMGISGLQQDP

GRIP1_7, Q9Y3R0 = biological target: T7, GRIP1_7, Q9Y3R0
T7 sequence (Q9Y3R0 999-1096, limits assumed, looked up): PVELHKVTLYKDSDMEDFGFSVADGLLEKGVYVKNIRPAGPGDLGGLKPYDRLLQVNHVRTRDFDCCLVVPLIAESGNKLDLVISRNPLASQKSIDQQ

MAGI2_6, Q86UL8 = biological target: MAGI2_6, Q86UL8
IL16_3, Q14005 = biological target: IL16_3, Q14005
MAST1, Q9Y2H9 = biological target: MAST1, Q9Y2H9
IL16_4, Q14005 = biological target: IL16_4, Q14005
MPDZ_10, O75970 = biological target: T8, MPDZ_10, O75970
T8 sequence (O75970 1624-1722, limits assumed, looked up): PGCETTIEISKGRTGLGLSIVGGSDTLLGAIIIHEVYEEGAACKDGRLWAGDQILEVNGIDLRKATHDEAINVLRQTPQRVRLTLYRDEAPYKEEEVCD

SNTB1, Q13884 = biological target: T9, SNTB1, Q13884
T9 sequence (Q13884 107-205, limits assumed, looked up): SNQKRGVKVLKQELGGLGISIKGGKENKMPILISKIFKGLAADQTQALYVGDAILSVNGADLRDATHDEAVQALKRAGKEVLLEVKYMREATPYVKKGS

DLG4_2, P78352 = biological target: DLG4_2, P78352
GRIP2_5, Q9C0E4 = biological target: GRIP2_5, Q9C0E4
MAGI2_3, Q86UL8 = biological target: MAGI2_3, Q86UL8
MPDZ_12, O75970 = biological target: T10, MPDZ_12, O75970
T10 sequence (O75970 1857-1958, limits assumed, looked up): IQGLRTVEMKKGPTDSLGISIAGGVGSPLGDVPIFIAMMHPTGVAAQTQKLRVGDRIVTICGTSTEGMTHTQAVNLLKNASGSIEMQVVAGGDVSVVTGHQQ

SIPA1L2, Q9P2F8 = biological target: T11, SIPA1L2, Q9P2F8
T11 sequence (Q9P2F8 945-1036, limits assumed, looked up): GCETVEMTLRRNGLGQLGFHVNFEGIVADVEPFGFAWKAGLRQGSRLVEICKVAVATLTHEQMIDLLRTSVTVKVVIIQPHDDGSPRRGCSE

FRMPD2_1, Q68DX3 = biological target: FRMPD2_1, Q68DX3
LNX1_3, Q8TBB1 = biological target: LNX1_3, Q8TBB1
PCLO, Q9Y6V0 = biological target: T12, PCLO, Q9Y6V0
T12 sequence (Q9Y6V0 4491-4600, limits assumed, looked up): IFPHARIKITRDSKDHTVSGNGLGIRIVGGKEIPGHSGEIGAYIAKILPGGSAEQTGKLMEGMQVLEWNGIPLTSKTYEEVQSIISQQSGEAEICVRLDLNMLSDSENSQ

NHERF3_4, Q5T2W1 = biological target: T13, NHERF3_4, Q5T2W1
T13 sequence (Q5T2W1 373-468, limits assumed, looked up): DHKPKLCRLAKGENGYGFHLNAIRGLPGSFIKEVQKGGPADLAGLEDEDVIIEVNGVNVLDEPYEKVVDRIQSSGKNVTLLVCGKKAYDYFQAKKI

LAP2, Q96RT1 = biological target: LAP2, Q96RT1
[1] = plain residues with an end cap or a label only (N-terminal biotin on a linker: ado-ado)
[2] = plain residues with an end cap or a label only (N-terminal biotin on a linker: ahx)

Chain of MAST1, Q9Y2H9 (Q9Y2H9 962-1065): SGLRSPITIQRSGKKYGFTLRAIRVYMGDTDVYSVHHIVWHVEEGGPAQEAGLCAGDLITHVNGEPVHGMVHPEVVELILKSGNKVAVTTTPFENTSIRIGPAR
Chain of MAGI2_3, Q86UL8 (Q86UL8 600-682): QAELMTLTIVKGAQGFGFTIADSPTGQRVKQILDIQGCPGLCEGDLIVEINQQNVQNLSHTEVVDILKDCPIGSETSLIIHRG
Chain of IL16_3, Q14005 (Q14005 1107-1207): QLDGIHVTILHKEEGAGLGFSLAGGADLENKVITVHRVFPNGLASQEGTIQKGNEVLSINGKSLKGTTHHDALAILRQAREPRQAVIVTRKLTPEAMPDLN
Chain of MAGI2_6, Q86UL8 (Q86UL8 1141-1229): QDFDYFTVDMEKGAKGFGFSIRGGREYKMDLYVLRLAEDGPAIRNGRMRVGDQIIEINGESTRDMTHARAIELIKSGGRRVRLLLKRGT
Chain of IL16_4, Q14005 (Q14005 1229-1329): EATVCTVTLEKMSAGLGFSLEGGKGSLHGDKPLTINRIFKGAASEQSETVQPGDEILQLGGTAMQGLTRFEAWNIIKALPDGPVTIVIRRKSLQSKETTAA
Chain of LAP2, Q96RT1 (Q96RT1 other isoform, or with tags, fused parts or gaps): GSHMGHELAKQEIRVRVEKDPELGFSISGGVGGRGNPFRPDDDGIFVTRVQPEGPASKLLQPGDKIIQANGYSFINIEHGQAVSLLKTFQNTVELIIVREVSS
Chain of GRIP2_5, Q9C0E4 (Q9C0E4 544-642): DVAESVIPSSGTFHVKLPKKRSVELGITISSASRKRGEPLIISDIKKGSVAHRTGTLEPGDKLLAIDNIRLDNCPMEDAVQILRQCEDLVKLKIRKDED
Chain of LNX1_3, Q8TBB1 (Q8TBB1 500-596): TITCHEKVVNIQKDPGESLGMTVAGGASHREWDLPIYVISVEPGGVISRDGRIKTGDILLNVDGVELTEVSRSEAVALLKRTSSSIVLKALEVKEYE
Chain of Inadl_3, Q8NI35 (Q8NI35 359-469): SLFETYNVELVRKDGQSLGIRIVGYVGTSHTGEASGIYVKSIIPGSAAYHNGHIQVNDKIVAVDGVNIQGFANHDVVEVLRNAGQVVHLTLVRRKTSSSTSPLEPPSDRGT
Chain of DLG4_2, P78352 (P78352 155-259): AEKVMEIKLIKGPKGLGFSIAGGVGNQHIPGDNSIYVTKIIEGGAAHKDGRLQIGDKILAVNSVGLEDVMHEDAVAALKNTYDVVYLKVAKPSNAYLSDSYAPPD
Chain of FRMPD2_1, Q68DX3 (Q68DX3 770-861): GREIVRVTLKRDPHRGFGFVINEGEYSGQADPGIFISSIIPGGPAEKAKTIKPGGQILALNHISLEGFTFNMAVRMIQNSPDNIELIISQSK

**Q.** Which results are given for PTPDLPQTRV [KLHDC7A, Q5VTJ3]?
**A.** pKd (PARD3B_1, Q8TEW8; [1]): 3.72; pKd (GRIP1_2, Q9Y3R0; [1]): below the threshold; pKd (ARHGAP21, Q5T5U3; [1]): below the threshold; pKd (Inadl_3, Q8NI35; [1]): below the threshold; pKd (DFNB31_3, Q9P202; [1]): 4.1; pKd (LNX2_3, Q8N448; [1]): below the threshold; pKd (ARHGEF11, O15085; [1]): 4.16; pKd (GRIP1_7, Q9Y3R0; [1]): below the threshold; pKd (MAGI2_6, Q86UL8; [1]): 3.61; pKd (IL16_3, Q14005; [1]): below the threshold; pKd (MAST1, Q9Y2H9; [1]): 4.58; pKd (IL16_4, Q14005; [1]): 3.5; pKd (MPDZ_10, O75970; [1]): 3.52; pKd (SNTB1, Q13884; [1]): 4.95; pKd (DLG4_2, P78352; [1]): 3.5; pKd (GRIP2_5, Q9C0E4; [1]): below the threshold; pKd (MAGI2_3, Q86UL8; [1]): 3.77; pKd (MPDZ_12, O75970; [1]): below the threshold; pKd (SIPA1L2, Q9P2F8; [1]): below the threshold; pKd (FRMPD2_1, Q68DX3; [1]): below the threshold; pKd (LNX1_3, Q8TBB1; [1]): below the threshold; pKd (PCLO, Q9Y6V0; [1]): below the threshold; pKd (NHERF3_4, Q5T2W1; [1]): below the threshold; pKd (LAP2, Q96RT1; [1]): below the threshold

**Q.** With QRPYRRGSEI [KCNJ18, B7U540] as the binder, how does the pKd (PARD3B_1, Q8TEW8; [1]) read?
**A.** below the threshold

**Q.** What about the pKd (GRIP1_2, Q9Y3R0; [1]) of the same binder?
**A.** below the threshold

**Q.** What about the pKd (ARHGAP21, Q5T5U3; [1]) of the same binder?
**A.** below the threshold

**Q.** What about the pKd (Inadl_3, Q8NI35; [1]) of the same binder?
**A.** below the threshold

**Q.** What about the pKd (DFNB31_3, Q9P202; [1]) of the same binder?
**A.** 3.83

**Q.** What about the pKd (LNX2_3, Q8N448; [1]) of the same binder?
**A.** below the threshold

**Q.** What about the pKd (ARHGEF11, O15085; [1]) of the same binder?
**A.** below the threshold

**Q.** And the pKd (GRIP1_7, Q9Y3R0; [1])?
**A.** below the threshold

**Q.** What about the pKd (MAGI2_6, Q86UL8; [1]) of the same binder?
**A.** below the threshold

**Q.** And the pKd (IL16_3, Q14005; [1])?
**A.** below the threshold

**Q.** And the pKd (MAST1, Q9Y2H9; [1])?
**A.** below the threshold

**Q.** What about the pKd (IL16_4, Q14005; [1]) of the same binder?
**A.** below the threshold

**Q.** What about the pKd (MPDZ_10, O75970; [1]) of the same binder?
**A.** below the threshold

**Q.** And the pKd (SNTB1, Q13884; [1])?
**A.** below the threshold

**Q.** What about the pKd (DLG4_2, P78352; [1]) of the same binder?
**A.** 3.66

**Q.** What about the pKd (GRIP2_5, Q9C0E4; [1]) of the same binder?
**A.** below the threshold

**Q.** What about the pKd (MAGI2_3, Q86UL8; [1]) of the same binder?
**A.** below the threshold

**Q.** And the pKd (MPDZ_12, O75970; [1])?
**A.** 3.56

**Q.** What about the pKd (SIPA1L2, Q9P2F8; [1]) of the same binder?
**A.** below the threshold

**Q.** What about the pKd (FRMPD2_1, Q68DX3; [1]) of the same binder?
**A.** below the threshold

**Q.** What about the pKd (LNX1_3, Q8TBB1; [1]) of the same binder?
**A.** below the threshold

**Q.** What about the pKd (PCLO, Q9Y6V0; [1]) of the same binder?
**A.** below the threshold

**Q.** And the pKd (NHERF3_4, Q5T2W1; [1])?
**A.** below the threshold

**Q.** And the pKd (LAP2, Q96RT1; [1])?
**A.** 4.09

**Q.** For QDEKVKESYV [ABCA1, O95477], which pKd (PARD3B_1, Q8TEW8; [2]) is on record?
**A.** below the threshold

**Q.** And the pKd (GRIP1_2, Q9Y3R0; [2])?
**A.** below the threshold

**Q.** And the pKd (ARHGAP21, Q5T5U3; [2])?
**A.** below the threshold

**Q.** And the pKd (Inadl_3, Q8NI35; [2])?
**A.** 3.75

**Q.** What about the pKd (DFNB31_3, Q9P202; [2]) of the same binder?
**A.** below the threshold

**Q.** And the pKd (LNX2_3, Q8N448; [2])?
**A.** 3.63

**Q.** And the pKd (ARHGEF11, O15085; [2])?
**A.** 4.3

**Q.** And the pKd (GRIP1_7, Q9Y3R0; [2])?
**A.** 3.49

**Q.** What about the pKd (MAGI2_6, Q86UL8; [2]) of the same binder?
**A.** 4.53

**Q.** What about the pKd (IL16_3, Q14005; [2]) of the same binder?
**A.** below the threshold

**Q.** And the pKd (MAST1, Q9Y2H9; [2])?
**A.** 4.16

**Q.** What about the pKd (IL16_4, Q14005; [2]) of the same binder?
**A.** below the threshold

**Q.** What about the pKd (MPDZ_10, O75970; [2]) of the same binder?
**A.** 4.29

**Q.** And the pKd (SNTB1, Q13884; [2])?
**A.** 5.22

**Q.** What about the pKd (DLG4_2, P78352; [2]) of the same binder?
**A.** 5.25

**Q.** And the pKd (GRIP2_5, Q9C0E4; [2])?
**A.** below the threshold

**Q.** And the pKd (MAGI2_3, Q86UL8; [2])?
**A.** 4.85

**Q.** And the pKd (MPDZ_12, O75970; [2])?
**A.** below the threshold

**Q.** And the pKd (SIPA1L2, Q9P2F8; [2])?
**A.** below the threshold

**Q.** And the pKd (FRMPD2_1, Q68DX3; [2])?
**A.** 3.53

**Q.** What about the pKd (LNX1_3, Q8TBB1; [2]) of the same binder?
**A.** below the threshold

**Q.** What about the pKd (PCLO, Q9Y6V0; [2]) of the same binder?
**A.** below the threshold

**Q.** What about the pKd (NHERF3_4, Q5T2W1; [2]) of the same binder?
**A.** 3.5

**Q.** What about the pKd (LAP2, Q96RT1; [2]) of the same binder?
**A.** 4.41
